In patent US8822645B2, “Prostaglandin E2 dual variable domain immunoglobulins and uses thereof” (AbbVie Inc., priority 2008, dated 2014):
Like-named read-outs stand apart in the source and are kept apart here.

Assays:
[1] = system: PGE2 / human EP4 receptor in HEK293 Gα16 cells; assay: EP4 bioassay (Ca++ flux, neutralization of PGE2); assay type: cell-based; details: EP4 bioassay, Ca++ flux
Protocol: The ability of anti-PGE2 antibodies and anti-PGE2 containing DVD-Ig molecules to inhibit the cellular response of PGE2 was determined in a Ca++ flux assay in HEK293 Gα16 cells stably transfected with human EP4 receptor. Cells were plated in black/clear poly-D-lysine plates, (Corning #3667, Corning, N.Y.) and incubated with Ca++-sensitive dye (Molecular Devices) for 90 minutes. Stock PGE2 (in 200 proof ethanol) was diluted with FLIPR buffer (containing 1×HBSS (Invitrogen, Carlsbad, Calif.), 20 mM HEPES (Invitrogen, Carlsbad, Calif.), 0.1% BSA (Sigma, St. Louis, Mo.) and 2.5 mM Probenecid (Sigma, St. Louis, Mo.)). Anti-PGE2 antibodies, DVD-Ig molecules or isotype matched control antibodies were also pre-diluted in FLIPR buffer. 25 μl of PGE2 or pre-incubated PGE2/antibody mixture or pre-incubated PGE2/DVD-Ig molecule mixture was added to the wells pre-plated with cells. A dose response of PGE2 was done by a serial titration of PGE2 and was determined using FLIPR1 or Tetra (Molecular Devices). EC50 was determined using GraphPad Prism 5 (GraftPad Software, La Jolla, Calif.). […] Ca++ flux was monitored using FLIPR1 and data was analyzed using GraphPad Prism 5.
The ability of anti-PGE2 antibodies and anti-PGE2 containing DVD-Ig molecules to inhibit the cellular response of PGE2 was determined in a Ca++ flux assay using stably transfected human EP4 in HEK293 Gα16 cells. Cells were plated in black/clear Poly-D-Lysine plates, (Corning #3667) and incubated with Ca++-sensitive dye (Molecular Devices) for 90 minutes. Stock PGE2 (in 200 proof ethanol) was diluted with FLIPR buffer (containing 1×HBSS, 20 mM HEPES, 0.1% BSA and 2.5 mM Probenecid). Anti-PGE2 antibodies, DVD-Ig molecules or isotype matched control antibodies were also pre-diluted in FLIPR buffer. 25 μl of PGE2 or pre-incubated PGE2/antibody mixture or pre-incubated PGE2/DVD-Ig molecule mixture was added to the wells pre-plated with cells. A dose response of PGE2 was done by a serial titration of PGE2 and was determined using FLIPR1 or Tetra (Molecular Devices). EC50 was determined using GraphPad Prism 5. […] Ca++ flux was monitored using FLIPR1 and data was analyzed using GraphPad Prism 5.

[2] = PGE2-biotinamide ELISA (PGE2 binding)
Protocol: (§1) Enzyme linked immunosorbent assays to screen for anti-PGE2 antibodies or anti-PGE2 containing DVD-Ig molecules that bind prostaglandin E2 were performed as follows. ELISA plates (Costar 3369, Corning, N.Y.) were coated with 50 μl of anti-host Fc IgG (Sigma, St. Louis, Mo.) at 2 μg/ml in PBS (Invitrogen Carlsbad, Calif.). Following an overnight incubation at 4° C., the plate was blocked with 200 μl Superblock (Pierce #37535, Rockford, Ill.). The IgG or DVD-Ig containing samples were diluted to 1 μg/ml in Assay Buffer (10% Superblock in PBS containing 0.05% Surfactamps (Pierce #37535, Rockford, Ill.) and incubated on the plate at 50 μl/well for 1 hour at room temperature. Following the incubation, plates were washed four times with TTBS (Tween-Tris Buffered Solution). For PGE2 binding, PGE2-biotinamide (Cayman Chemicals, Ann Arbor, Mich.) was diluted to 30 nM and serially diluted in Assay Buffer. The titration curve was added to each IgG or DVD-Ig sample at a volume of 50 μl/well and incubated for 1 hour at room temperature. The plates were washed as previously described and 50 μl/well of 1:5000 dilution of streptavidin polyhrp40 (Fitzgerald Industries, Concord, Mass.) in Assay Buffer was added and incubated for 45 minutes at room temperature. A final wash step was performed and the plates were developed using a single step TMB system (Sigma #T8665, St. Louis, Mo.) and 2N H2SO4. Plates were read at 450 nm on a Molecular Devices Spectramax plate reader (Sunnyvale, Calif.). EC50 was determined using GraphPad Prism 5 (GraphPad Software, La Jolla, Calif.) (FIG. 2).
as §1, with “ELISA” for “Enzyme linked immunosorbent assays to screen for anti-PGE2 antibodies or anti-PGE2 containing DVD-Ig molecules that bind prostaglandin E2 were performed as follows. ELISA”, “(Invitrogen,” for “(Invitrogen”, “IgG” for “IgG or DVD-Ig”, “Solution).” for “Solution). For PGE2 binding,”, “Calif.).” for “Calif.) (FIG. 2).”

[3] = PGE2 VD in N-terminal position, read-out: N-terminal VD PGE2 Neutralization EC50
[4] = PGE2 VD in N-terminal position, read-out: Direct Bind ELISA N-terminal VD EC50
[5] = PGE2 VD in C-terminal position, read-out: C-terminal VD PGE2 Neutralization EC50
[6] = PGE2 VD in C-terminal position, read-out: Direct Bind ELISA C-terminal VD EC50

| Molecule | EC50 [1, 3] | EC50 [2, 4] | EC50 [1, 5] | EC50 [2, 6] | also measured |
| --- | --- | --- | --- | --- | --- |
| DVD157: DVD-Ig construct listed in Table 4 (antibody) VH: EVQLVQSGAEVKKPGASVKVSCKASGYTFTKYWLGWVRQAPGQGLEWMGDIYPGYDYTHYNEKFKDRVTLTTDTSTSTAYMELRSLRSDDTAVYYCARSDGSSTYWGQGTLVTVSSASTKGPQVQLVESGGGVVQPGRSLRLSCAASGFTFSVYGMNWVRQAPGKGLEWVAIIWYDGDNQYYADSVKGRFTISRDNSKNTLYLQMNGLRAEDTAVYYCARDLRTGPFDYWGQGTLVTVSS VL: DVLMTQTPLSLPVTPGEPASISCTSSQNIVHSNGNTYLEWYLQKPGQSPQLLIYKVSNRFSGVPDRFSGSGSGTDFTLKISRVEAEDVGVYYCFQVSHVPYTFGGGTKVEIKRTVAAPEIVLTQSPDFQSVTPKEKVTITCRASQSIGSSLHWYQQKPDQSPKLLIKYASQSFSGVPSRFSGSGSGTDFTLTINSLEAEDAAAYYCHQSSSLPFTFGPGTKVDIKR | 0.217 nM | 1.23 nM | – | – | – |
| DVD158: DVD-Ig construct listed in Table 4 (antibody) VH: QVQLVESGGGVVQPGRSLRLSCAASGFTFSVYGMNWVRQAPGKGLEWVAIIWYDGDNQYYADSVKGRFTISRDNSKNTLYLQMNGLRAEDTAVYYCARDLRTGPFDYWGQGTLVTVSSASTKGPEVQLVQSGAEVKKPGASVKVSCKASGYTFTKYWLGWVRQAPGQGLEWMGDIYPGYDYTHYNEKFKDRVTLTTDTSTSTAYMELRSLRSDDTAVYYCARSDGSSTYWGQGTLVTVSS VL: EIVLTQSPDFQSVTPKEKVTITCRASQSIGSSLHWYQQKPDQSPKLLIKYASQSFSGVPSRFSGSGSGTDFTLTINSLEAEDAAAYYCHQSSSLPFTFGPGTKVDIKRTVAAPDVLMTQTPLSLPVTPGEPASISCTSSQNIVHSNGNTYLEWYLQKPGQSPQLLIYKVSNRFSGVPDRFSGSGSGTDFTLKISRVEAEDVGVYYCFQVSHVPYTFGGGTKVEIKR | – | – | 0.21 nM | 1.14 nM | – |
| DVD161: DVD-Ig construct listed in Table 4 (antibody) VH: EVQLVQSGAEVKKPGASVKVSCKASGYTFTKYWLGWVRQAPGQGLEWMGDIYPGYDYTHYNEKFKDRVTLTTDTSTSTAYMELRSLRSDDTAVYYCARSDGSSTYWGQGTLVTVSSASTKGPEVQLVESGGGLVQPGGSLRLSCAASGYTFTNYGMNWVRQAPGKGLEWVGWINTYTGEPTYAADFKRRFTFSLDTSKSTAYLQMNSLRAEDTAVYYCAKYPHYYGSSHWYFDVWGQGTLVTVSS VL: DVLMTQTPLSLPVTPGEPASISCTSSQNIVHSNGNTYLEWYLQKPGQSPQLLIYKVSNRFSGVPDRFSGSGSGTDFTLKISRVEAEDVGVYYCFQVSHVPYTFGGGTKVEIKRTVAAPDIQMTQSPSSLSASVGDRVTITCSASQDISNYLNWYQQKPGKAPKVLIYFTSSLHSGVPSRFSGSGSGTDFTLTISSLQPEDFATYYCQQYSTVPWTFGQGTKVEIKR | 0.193 nM | 1.02 nM | – | – | – |
| DVD162: DVD-Ig construct listed in Table 4 (antibody) VH: EVQLVESGGGLVQPGGSLRLSCAASGYTFTNYGMNWVRQAPGKGLEWVGWINTYTGEPTYAADFKRRFTFSLDTSKSTAYLQMNSLRAEDTAVYYCAKYPHYYGSSHWYFDVWGQGTLVTVSSASTKGPEVQLVQSGAEVKKPGASVKVSCKASGYTFTKYWLGWVRQAPGQGLEWMGDIYPGYDYTHYNEKFKDRVTLTTDTSTSTAYMELRSLRSDDTAVYYCARSDGSSTYWGQGTLVTVSS VL: DIQMTQSPSSLSASVGDRVTITCSASQDISNYLNWYQQKPGKAPKVLIYFTSSLHSGVPSRFSGSGSGTDFTLTISSLQPEDFATYYCQQYSTVPWTFGQGTKVEIKRTVAAPDVLMTQTPLSLPVTPGEPASISCTSSQNIVHSNGNTYLEWYLQKPGQSPQLLIYKVSNRFSGVPDRFSGSGSGTDFTLKISRVEAEDVGVYYCFQVSHVPYTFGGGTKVEIKR | – | – | 0.067 nM | 1.32 nM | – |
| DVD164: DVD-Ig construct listed in Table 4 (antibody) VH: QVQLQESGPGLVKPSETLSLTCTVSGFSLIGYDLNWIRQPPGKGLEWIGIIWGDGTTDYNSAVKSRVTISKDTSKNQFSLKLSSVTAADTAVYYCARGGYWYATSYYFDYWGQGTLVTVSSASTKGPEVQLVQSGAEVKKPGASVKVSCKASGYTFTKYWLGWVRQAPGQGLEWMGDIYPGYDYTHYNEKFKDRVTLTTDTSTSTAYMELRSLRSDDTAVYYCARSDGSSTYWGQGTLVTVSS VL: DIQMTQSPSSLSASVGDRVTITCRASQSISNNLNWYQQKPGKAPKLLIYYTSRFHSGVPSRFSGSGSGTDFTFTISSLQPEDIATYYCQQEHTLPYTFGQGTKLEIKRTVAAPDVLMTQTPLSLPVTPGEPASISCTSSQNIVHSNGNTYLEWYLQKPGQSPQLLIYKVSNRFSGVPDRFSGSGSGTDFTLKISRVEAEDVGVYYCFQVSHVPYTFGGGTKVEIKR | – | – | 0.079 nM | 1.3 nM | – |
| AB048: parent antibody, PGE2, SEQ ID 48/49 (antibody, V domains shown) VH: EVQLVQSGAEVKKPGASVKVSCKASGYTFTKYWLGWVRQAPGQGLEWMGDIYPGYDYTHYNEKFKDRVTLTTDTSTSTAYMELRSLRSDDTAVYYCARSDGSSTYWGQGTLVTVSS VL: DVLMTQTPLSLPVTPGEPASISCTSSQNIVHSNGNTYLEWYLQKPGQSPQLLIYKVSNRFSGVPDRFSGSGSGTDFTLKISRVEAEDVGVYYCFQVSHVPYTFGGGTKVEIKR | – | – | – | – | EC50 ([1]; parent antibody (cell spans both VD columns), read-out: PGE2 Neutralization EC50): 0.017 nM; EC50 ([2]; parent antibody (cell spans both VD columns), read-out: Direct Bind ELISA EC50 (PGE2 binding)): 1.49 nM |
